Source: US20200016206A1

Molecular target: IL-2Rαβ (UniProt P01589)
Assay: in vitro binding affinity against IL-2 as standard; method presumably the SPR of Example 2 (Biacore T-100, receptor-Fc captured, EC50 from RU against concentration)

UniProt P01589, sequence (P01589 22-213 limits assumed): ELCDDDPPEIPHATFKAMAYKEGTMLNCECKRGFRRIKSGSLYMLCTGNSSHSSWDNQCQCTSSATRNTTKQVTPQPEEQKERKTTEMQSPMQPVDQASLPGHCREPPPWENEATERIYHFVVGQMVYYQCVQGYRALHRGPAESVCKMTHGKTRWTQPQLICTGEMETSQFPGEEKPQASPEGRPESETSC

## RSLAIL-2 (rIL-2 with the aldesleukin sequence, releasably PEGylated with mPEG2-C2-Fmoc-20kD-NHS) (from UniProt P60568 22-153) (ligand)
  fold decrease in affinity relative to IL-2: 60 fold
